Reference: patent publication US20230002480A1

How the values were obtained:
Assay in all cases: cell-based or functional assay
[1] = biological target: HIV-1 Env of pseudovirus MS208.A1 (HIV-1)
[2] = biological target: HIV-1 Env of pseudovirus HIV-0013095-2.11 (HIV-1)
[3] = biological target: HIV-1 Env of pseudovirus Q769.d22 (HIV-1)
[4] = biological target: HIV-1 Env of pseudovirus ZM135M.PL10a (HIV-1)
[5] = biological target: HIV-1 Env of pseudovirus BJOX028000.10.3 (HIV-1)
[6] = biological target: HIV-1 Env of pseudovirus 235-47 (HIV-1)
[7] = biological target: HIV-1 Env of pseudovirus 3301.v1.c24 (HIV-1)
[8] = biological target: HIV-1 Env of pseudovirus Ce1172_H1 (HIV-1)
[9] = biological target: HIV-1 Env of pseudovirus 6540.v4.c1 (HIV-1)
[10] = biological target: HIV-1 Env of pseudovirus Du156.12 (HIV-1)
[11] = biological target: HIV-1 Env of pseudovirus Ce0682_E4 (HIV-1)
[12] = biological target: HIV-1 Env of pseudovirus THRO4156.18 (HIV-1)
[13] = biological target: HIV-1 Env of pseudovirus Q461.e2 (HIV-1)
[14] = biological target: HIV-1 Env of pseudovirus R2184.c04 (HIV-1)
[15] = biological target: HIV-1 Env of pseudovirus 263-8 (HIV-1)
[16] = biological target: HIV-1 Env of pseudovirus 6244_13_B5_4576 (HIV-1)
[17] = biological target: HIV-1 Env of pseudovirus CNE58 (HIV-1)
[18] = biological target: HIV-1 Env of pseudovirus TRJO4551.58 (HIV-1)
[19] = biological target: HIV-1 Env of pseudovirus 3817.v2.c59 (HIV-1)
[20] = biological target: HIV-1 Env of pseudovirus X1193_c1 (HIV-1)
[21] = biological target: HIV-1 Env of pseudovirus X1632_S2_B10 (HIV-1)
[22] = biological target: HIV-1 Env of pseudovirus HIV-16055-2.3 (HIV-1)
[23] = biological target: HIV-1 Env of pseudovirus 0260.v5.c36 (HIV-1)
[24] = biological target: HIV-1 Env of pseudovirus HIV-16845-2.22 (HIV-1)
[25] = biological target: HIV-1 Env of pseudovirus WITO4160.33 (HIV-1)
[26] = biological target: HIV-1 Env of pseudovirus 9004SS_A3_4 (HIV-1)
[27] = biological target: HIV-1 Env of pseudovirus 6545.v4.c1 (HIV-1)
[28] = biological target: HIV-1 Env of pseudovirus 6041.v3.c23 (HIV-1)
[29] = biological target: HIV-1 Env of pseudovirus CNE20 (HIV-1)
[30] = biological target: HIV-1 Env of pseudovirus 191955_A11 (HIV-1)
[31] = biological target: HIV-1 Env of pseudovirus Du172.17 (HIV-1)
[32] = biological target: HIV-1 Env of pseudovirus X2131_C1_B5 (HIV-1)
[33] = biological target: HIV-1 Env of pseudovirus R1166.c01 (HIV-1)

B1: N49P22 (antibody, V domains shown)
V domain 1: HIQLLQSGPQVKKSGDTVRISCETSGYNFVDSRIHWVRQTPEKRLRWMGWINPLQGGVNYAPEFQGRIRMTRDTFIDTVYVDLSGLTPADTAYYYCARGIDGKSYPFHFWGHGTRVTVFS
V domain 2: RFALTQPASVSGSPGQTITITCAGGSVSWFHFPPGKTPRLIIYESSKRPSGVSPRFSGSQSGSTASLIISGLQSDDEGTYFCSILEFFGRGTLVTVLS
B1 was tested, and the IC50 [1] was > 50 µg/mL, the IC80 [1] was > 50 µg/mL and the MPI [1] was 17. For the same binder, the IC50 [2] was > 50 µg/mL, the IC80 [2] was > 50 µg/mL and the MPI [2] was 9. It also gave an IC50 [3] of 0.043 µg/mL, an IC80 [3] of 0.259 µg/mL and an MPI [3] of 100. The IC50 [4] was > 50 µg/mL, the IC80 [4] was > 50 µg/mL and the MPI [4] was 27. For the same binder, the IC50 [5] was > 50 µg/mL, the IC80 [5] was > 50 µg/mL and the MPI [5] was 0. For the same binder, the IC50 [6] was 0.037 µg/mL, the IC80 [6] was 0.373 µg/mL and the MPI [6] was 99. The IC50 [7] was 2.82 µg/mL, the IC80 [7] was 48.8 µg/mL and the MPI [7] was 80. For the same binder, the IC50 [8] was > 50 µg/mL, the IC80 [8] was > 50 µg/mL and the MPI [8] was 0. For the same binder, the IC50 [9] was > 50 µg/mL, the IC80 [9] was > 50 µg/mL and the MPI [9] was 29. For the same binder, the IC50 [10] was > 50 µg/mL, the IC80 [10] was > 50 µg/mL and the MPI [10] was 4. For the same binder, the IC50 [11] was 1.13 µg/mL, the IC80 [11] was > 50 µg/mL and the MPI [11] was 75. For the same binder, the IC50 [12] was > 50 µg/mL, the IC80 [12] was > 50 µg/mL and the MPI [12] was 32. For the same binder, the IC50 [13] was 11.2 µg/mL, the IC80 [13] was > 50 µg/mL and the MPI [13] was 66. For the same binder, the IC50 [14] was 0.077 µg/mL, the IC80 [14] was 0.342 µg/mL and the MPI [14] was 100. It also gave an IC50 [15] of 1.83 µg/mL, an IC80 [15] of 18.5 µg/mL and an MPI [15] of 89. The IC50 [16] was 0.565 µg/mL, the IC80 [16] was 2.48 µg/mL and the MPI [16] was 97. For the same binder, the IC50 [17] was 28.4 µg/mL, the IC80 [17] was > 50 µg/mL and the MPI [17] was 57. The IC50 [18] was > 50 µg/mL, the IC80 [18] was > 50 µg/mL and the MPI [18] was 28. The IC50 [19] was > 50 µg/mL, the IC80 [19] was > 50 µg/mL and the MPI [19] was 12. For the same binder, the IC50 [20] was 3.49 µg/mL, the IC80 [20] was 28.5 µg/mL and the MPI [20] was 85. For the same binder, the IC50 [21] was > 50 µg/mL, the IC80 [21] was > 50 µg/mL and the MPI [21] was 0. The IC50 [22] was 4.66 µg/mL, the IC80 [22] was 39.7 µg/mL and the MPI [22] was 83. For the same binder, the IC50 [23] was 1.67 µg/mL, the IC80 [23] was 14.4 µg/mL and the MPI [23] was 93. For the same binder, the IC50 [24] was 4.6 µg/mL, the IC80 [24] was 41.9 µg/mL and the MPI [24] was 87. For the same binder, the IC50 [25] was 4.86 µg/mL, the IC80 [25] was > 50 µg/mL and the MPI [25] was 74. The IC50 [26] was > 50 µg/mL, the IC80 [26] was > 50 µg/mL and the MPI [26] was 42. The IC50 [27] was > 50 µg/mL, the IC80 [27] was > 50 µg/mL and the MPI [27] was 17. The IC50 [28] was 7.55 µg/mL, the IC80 [28] was > 50 µg/mL and the MPI [28] was 66. The IC50 [29] was > 50 µg/mL, the IC80 [29] was > 50 µg/mL and the MPI [29] was 18. For the same binder, the IC50 [30] was > 50 µg/mL, the IC80 [30] was > 50 µg/mL and the MPI [30] was 9. For the same binder, the IC50 [31] was > 50 µg/mL, the IC80 [31] was > 50 µg/mL and the MPI [31] was 4. For the same binder, the IC50 [32] was > 50 µg/mL, the IC80 [32] was > 50 µg/mL and the MPI [32] was 44. For the same binder, the IC50 [33] was 0.232 µg/mL, the IC80 [33] was 0.799 µg/mL and the MPI [33] was 100.
